Laboratory results: US20250197473A1
Like-named read-outs stand apart in the source and are kept apart here.

Key:
Test in all cases: ELISA
CTLA-4 [1] = target: CTLA-4
PD-1 [2] = target: PD-1
CTLA-4 [3] = target: CTLA-4; remark: listed apart in the source
PD-1 [4] = target: PD-1; remark: listed apart in the source

B7.1 domain only plus Fc construct (Fc fusion)
CLTA-4 Relative Binding (CTLA-4 [1]): 3.26 | PD-1 Relative Binding (PD-1 [2]): 0.004 | CLTA-4 Relative Binding (CTLA-4 [3]): 0.236 | PD-1 Relative Binding (PD-1 [4]): 0

B7.1/PD-L2 composition (a B7.1 domain linked to a PD-L2 domain plus an Fc domain) (Fc fusion)
CLTA-4 Relative Binding (CTLA-4 [3]): 0.548 | PD-1 Relative Binding (PD-1 [4]): 0

PD-L2 domain only plus Fc construct (Fc fusion)
CLTA-4 Relative Binding (CTLA-4 [1]): 0.008 | PD-1 Relative Binding (PD-1 [2]): 1.77

PD-L2/B7.1 Dual Checkpoint (dual checkpoint inhibitor composition comprising, from the N-terminus to the C-terminus, a PD-L2 domain linked to a B7.1 domain plus a Fc domain) (Fc fusion)
CLTA-4 Relative Binding (CTLA-4 [1]): 1.65 | PD-1 Relative Binding (PD-1 [2]): 3.37 | CLTA-4 Relative Binding (CTLA-4 [3]): 0.266 | PD-1 Relative Binding (PD-1 [4]): 0.088
